Assay [1] has as its target biotinylated SE36 (Plasmodium falciparum (Honduras-1)). The assay is described as follows: SPR; Biacore T200, chip SA; biotinylated SE36 immobilized at 200 RU via streptavidin; purified VTN 1.25-20 μg/mL (~17.9-285.7 nM) flowed at 20 μL/min, 25 °C, PBS with 0.05% Tween 20; fitted to 1:1 binding and bivalent analyte models.
A further assay deals with T1, SERA5 SE36 (Plasmodium falciparum, UniProt Q9TY95).
T1 chain: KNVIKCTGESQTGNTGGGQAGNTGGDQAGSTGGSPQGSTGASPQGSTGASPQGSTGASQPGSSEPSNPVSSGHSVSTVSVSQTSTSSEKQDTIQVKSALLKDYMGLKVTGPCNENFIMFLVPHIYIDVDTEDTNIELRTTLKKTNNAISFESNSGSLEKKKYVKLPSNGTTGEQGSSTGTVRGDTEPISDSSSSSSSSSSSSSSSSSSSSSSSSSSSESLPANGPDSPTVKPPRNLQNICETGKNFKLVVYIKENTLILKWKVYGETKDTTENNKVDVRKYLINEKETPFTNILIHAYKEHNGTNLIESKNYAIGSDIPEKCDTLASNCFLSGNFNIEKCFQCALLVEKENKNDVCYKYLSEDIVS
The assay is described as follows: SPR. A general note: SPR reads the build-up and loss of mass on a sensor chip optically.

Data on two molecules can be found in publication PMC5864917 (2018).

As for “Vitronectin (VTN), human (natural protein)”, in assay [1], the KD1 (bivalent analyte model, first interaction) is 3.7 nM; the ka1 (bivalent analyte model, first interaction) amounted to 550000 M⁻¹ s⁻¹; the kd1 (bivalent analyte model, first interaction) was 0.002 s⁻¹.

B1: Vitronectin (protein)
chain: ATWLSLFSSEESNLGANNYDDYRMDWLVPATCEPIQSVFFFSGDKYYRVNLRTRRVDTVDPPYPRSIAQYWLGCPAPGHL
In the case of B1, binding in the assay with SERA5 SE36 was put at a Kd of 3.7 nM.
